From patent WO2019080889A1 (dated 2019)

Legend:
[1] = molecular target: T1, human CSF-1R protein (huCSF-1R), full length, expressed on CHO-S cells (human, UniProt P07333 20-972); experiment: flow cytometry on CHO cells highly expressing CSF-1R
T1 construct: whole, on cells; Also used here as the target of the monocyte proliferation assays (native receptor on human monocytes); also called CSF-1R/CHO cells; CHO cells highly expressing CSF-1R

[2] = molecular target: T2, cynomolgus monkey CSF-1R-His (cynomolgus monkey, UniProt A0A2K5WG90 20-512); experiment: ELISA on cynomolgus CSF-1R-His
T2 construct: Bought protein; also called cynoCSF-1R-His; cynomolgus CSF-1R protein; not shown: His tag

B1: humanized anti-CSF-1R antibody huC11 (antibody, human IgG1, kappa, V domains shown)
VH: EVQLVQSGAEVKKPGASVKVSCKASGYTFSNYYMNWVRQAPGQGLEWMGEMNPNTGDSSYNQKFKGRVTLTVDKSTSTAYMELSSLRSEDTAVYYCARRSPWWFFDVWGQGTMVTVSS
VL: DIVMTQSPDSLAVSLGERATINCKSSQSLLSSGNQKTSLTWYQQKPGQPPKLLIYWASTRESGVPDRFSGSGSGTDFTLTISSLQAEDVAVYYCQNDYTYPFTFGQGTKLEIKR
notes: Full-length chains; also called huC11 (VH-b heavy chain and VL-b light chain)
binding result [1]: binds

B2: anti-CSF-1R chimeric antibody C11C (antibody, V domains shown)
VH: EVQLQQSGPELVKPGASVKISCKASGYTFSNYYMNWVNQRHGERLEWIGEMNPNNGDSSYNQKFKGKATLTVDKSSSTAYMELRSLTSEDSAVYYCARRSPWWFFDVWGPGTTVIVSS
VL: DIVMTQSPSSLTVTAGEKVTMSCKSSQSLLNSGNQKNSLTWYQQKPGQPPKLLIYWASTRESGVPDRFTGSGSGTDFTLTISSVQTEDLAVYYCQNDYTYPFTFGTGTKLEIK
binding result [1]: binds

B3: humanized anti-CSF-1R antibody huC19 (antibody, human IgG1, kappa, V domains shown)
VH: QVQLVQSGAEVKKPGASVKVSCKASAITFTDYYMNWVKQAPGQGLEWIGDIYPNTGGTTYNQKFKGRVTLTVDTSISTAYMELSRLRSEDTAVYYCAREKITMEYYYAMDYWGQGTLVTVSS
VL: DIQLTQSPSSLSASVGDRVTITCRASESVSSHDIHLIHWYQQKPGKAPKLLIYAASSLESGVPSRFSGSGSGTDFTLTISSLQPEDFATYFCQQSIEDPPTFGGGTKVEIKR
notes: Full-length chains; also called huC19 (VH-c heavy chain and VL-a light chain)
binding result [1]: binds

B4: anti-CSF-1R chimeric antibody C19C (antibody, V domains shown)
VH: EVQLQQSGPELVKPGASVKISCTASAITFTDYYMNWVKQSPGKGLEWIGDIYPNNGGTTYNQKFKGKATLTVDKSSTTAYMELRSLTSEDSAVYYCAREKITMEYYYAMDYWGQGTSVTVSS
VL: DIVLTQSPASLAVSLGQRATISCRASESVSSHDIHLIHWYQQKPGQSPKLLIYAASSLESGVPARFSGSGSATDFTLNIHPVEEEDAATYFCQQSIEDPPTFGGGTKLEIK
binding result [1]: binds

B5: anti-CSF-1R chimeric antibody C27C (antibody, V domains shown)
VH: EVQLQQSGAELVRPGALVKLSCKASGFNIKDYYMHWVKQRPEQGLEWIGRFDPENGDTIYDWKFQDKAIITSDTSSNTAYLHLSSLTSEDTAVYYCARSGDYMFDYWGQGTLVTVSA
VL: ETTVTQSPASLSMAIGEKVTIRCITSTGVDDDFNWYQQRPGEPPKLLISEGNTLRPGVPSRFSSSGYGTDFVFTIENMLSEDVADYFCLQSDHLPFTFGSGTKLEIK
binding result [2]: no binding
